The values that follow come from patent US7528244 (Amgen, dated 2009).

The target in assay [1] is T1, Casper (192-480) (human, UniProt O15519 192-480).
T1 construct: also called C-terminal protease-like domain of Casper
Kind of assay: co-immunoprecipitation in 293 cells.

Assay [2] has as its target T1, Casper (192-480). Description: anti-Flag immunoprecipitation, caspase-3 immunoblot, 293 cells. On the technique in general: A western blot detects proteins with antibodies after separation by electrophoresis.
The target of a further assay is T2, CrmA (UniProt P07385 1-341).
T2 construct: also called Myc-CrmA
Kind of assay: co-transfection and co-immunoprecipitation in mammalian cells.

T1 sequence (O15519 192-480): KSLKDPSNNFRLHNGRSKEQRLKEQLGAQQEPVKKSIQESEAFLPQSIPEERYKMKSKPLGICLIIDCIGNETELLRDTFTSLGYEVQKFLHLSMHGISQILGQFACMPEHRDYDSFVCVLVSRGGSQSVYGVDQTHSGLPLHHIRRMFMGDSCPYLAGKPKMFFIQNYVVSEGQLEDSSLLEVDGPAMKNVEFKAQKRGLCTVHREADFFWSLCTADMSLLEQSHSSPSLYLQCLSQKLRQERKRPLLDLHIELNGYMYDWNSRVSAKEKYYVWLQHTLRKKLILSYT

B1: FADD (other, UniProt Q13158 1-208, looked up)
chain: MDPFLVLLHSVSSSLSSSELTELKFLCLGRVGKRKLERVQSGLDLFSMLLEQNDLEPGHTELLRELLASLRRHDLLRRVDDFEAGAAAGAAPGEEDLCAAFNVICDNVGKDWRRLARQLKVSDTKIDSIEDRYPRNLTERVRESLRIWKNTEKENATVAHLVGALRSCQMNLVADLVQEVQQARDLQNRSGAMSPMSWNSDASTSEAS
notes: also called Flag-tagged FADD; AU1-tagged FADD
With B1, the binding result in the assay with Casper (192-480) [1] is listed as “no binding”.

B2: caspase-3 (enzyme, UniProt P42574 1-277, looked up)
chain: MENTENSVDSKSIKNLEPKIIHGSESMDSGISLDNSYKMDYPEMGLCIIINNKNFHKSTGMTSRSGTDVDAANLRETFRNLKYEVRNKNDLTREEIVELMRDVSKEDHSKRSSFVCVLLSHGEEGIIFGTNGPVDLKKITNFFRGDRCRSLTGKPKLFIIQACRGTELDCGIETDSGVDDDMACHKIPVEADFLYAYSTAPGYYSWRNSKDGSWFIQSLCAMLKQYADKLEFMHILTRVNRKVATEFESFSFDATFHAKKQIPCIVSMLTKELYFYH
notes: also called caspase-3 precursor
B2: the binding result with Casper (192-480) [2] is on record as “binds”; with CrmA, “no binding”.
